Article PMC11257990
Values joined by “and” are separate entries in the source; they are usually repeats but may differ in a detail not shown here. Equal entries are not always repeated.

Biological target: CUL9 (endogenous, U2OS) (human (endogenous in U2OS)) (UniProt Q8IWT3)
Experiment: sucrose gradient fractionation; 1 mg U2OS lysate on a continuous 5–40% sucrose gradient, 160,000g, 16 h, 4 °C; fractions immunoblotted for CUL9; purified hexameric CUL9–RBX1 and dimeric CUL9^(R125A Y152A)–RBX1 run for comparison
Settings: remark: other sources report otherwise

- stoichiometry N: 6 and 2
Substance: CUL9 (endogenous, U2OS), Q8IWT3 1-2517
